This passage reports Max Binding results from US20220112288A1.

For experiment [1], the target named is human CD4 on cells (SKW3 cells; human PBMCs) (human) (UniProt P01730). As to the kind of experiment: SKW3 FACS binning, OKT4a on SKW3 cells, anti-hu A647 secondary, without competing supernatant (background 5000).
For experiment [2] the target is unchanged. As to the kind of experiment: SKW3 FACS binning, OKT4-A488 on SKW3 cells without competing supernatant (background 2163).
The target is the same in experiment [3]. As to the kind of experiment: SKW3 FACS binning, RPA-T4-PE-Dazzle 594 on SKW3 cells without competing supernatant (background 783).

For the substance Human anti-human CD4 (OKT4a) (antibody), the Max Binding in experiment [1] was determined as 35000.

“Mouse anti-human CD4 (OKT4), Alexa Fluor 488 conjugated (antibody)”: in experiment [2], the Max Binding was determined as 8200.

“Mouse anti-human CD4 (RPA-T4), PE-Dazzle 594 conjugated (antibody)” yielded a Max Binding in experiment [3] of 15000.
